This assay concerns the target FITC-BIM SAHBA2. The assay is described as follows: fluorescence polarisation; direct binding: FITC-BIM SAHBA2 (50 nM) with serial dilutions of full-length BAX, read at 20 min. (In general: In fluorescence polarisation assays a small probe gives low polarisation when free and higher when bound to something large.)

“Human, recombinant and tagless BAX (from UniProt Q07812 1-192) (natural protein)”: the EC75 was 0.5 µM.

By EC75 is commonly meant the concentration at which the effect reaches the 75% level. Low readings indicate greater potency, high ones weaker potency.

The values above are taken from PMC8901805.
